Data: US20110237560A1 (published 2011)
Blank lines part the entries; values can stand above or below the binder they belong to.

Columns and labels:
Myc-human Hsp90beta [1] = molecular target: T1, Myc-human Hsp90beta (human, UniProt P08238 1-724); assay: anti-Flag co-immunoprecipitation from cotransfected HEK293T, western blot anti-myc (FIG. 2C)
T1 construct: also called myc-Hsp90beta; myc-tagged Hsp90beta; not shown: N-terminal myc tag of pCMV-3Tag2

Myc-human Hsp90beta [2] = molecular target: T1, Myc-human Hsp90beta; assay: anti-Flag co-immunoprecipitation from cotransfected HEK293T, western blot anti-myc

T1 sequence (P08238 whole entry): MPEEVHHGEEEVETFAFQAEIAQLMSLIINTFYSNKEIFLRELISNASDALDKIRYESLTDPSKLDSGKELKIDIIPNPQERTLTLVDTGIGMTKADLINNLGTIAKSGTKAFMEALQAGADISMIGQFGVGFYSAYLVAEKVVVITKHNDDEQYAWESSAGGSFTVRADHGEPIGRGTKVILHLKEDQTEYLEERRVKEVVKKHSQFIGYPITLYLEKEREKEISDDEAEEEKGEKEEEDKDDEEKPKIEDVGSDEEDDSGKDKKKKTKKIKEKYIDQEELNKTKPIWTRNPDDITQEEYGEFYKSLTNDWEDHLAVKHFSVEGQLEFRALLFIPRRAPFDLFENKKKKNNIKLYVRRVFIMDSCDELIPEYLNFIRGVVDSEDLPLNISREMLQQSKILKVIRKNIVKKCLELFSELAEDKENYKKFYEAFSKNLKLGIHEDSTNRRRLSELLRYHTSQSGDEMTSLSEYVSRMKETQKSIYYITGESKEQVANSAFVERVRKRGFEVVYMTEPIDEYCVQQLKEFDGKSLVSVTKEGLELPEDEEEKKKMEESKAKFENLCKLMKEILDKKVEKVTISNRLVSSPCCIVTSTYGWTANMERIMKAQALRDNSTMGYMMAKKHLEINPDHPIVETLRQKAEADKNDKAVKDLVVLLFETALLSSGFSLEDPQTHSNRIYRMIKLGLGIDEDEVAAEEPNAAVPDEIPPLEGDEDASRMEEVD

binding result (Myc-human Hsp90beta [1]): no binding
B1: AID-APOBEC2 chimera #1 (enzyme)
chain: MDSLLMNRRKFLYQFKNVEYSSGRNKTFLCYVVEAQGKGGQVQASRGYLEDEHAAELLFLRYISDWDLDPGRCYRVTWFTSWSPCYDCARHVADFLRGNPNLSLRIFTARLYFCEDRKAEPEGLRRLHRAGVQIAIMTFKDYFYCWNTFVENHERTFKAWEGLHENSVRLSRQLRRILLPLYEVDDLRDAFRTLGL
notes: range 60-96; Flag-tagged in the HEK293T co-immunoprecipitation; also called AID-A2 #1; not shown: its end of the chain and its l

binding result (Myc-human Hsp90beta [2]): no binding
B2: Flag-tagged APOBEC2 (enzyme, UniProt Q9Y235 1-224, looked up)
chain: MAQKEEAAVATEAASQNGEDLENLDDPEKLKELIELPPFEIVTGERLPANFFKFQFRNVEYSSGRNKTFLCYVVEAQGKGGQVQASRGYLEDEHAAAHAEEAFFNTILPAFDPALRYNVTWYVSSSPCAACADRIIKTLSKTKNLRLLILVGRLFMWEEPEIQAALKKLKEAGCKLRIMKPQDFEYVWQNFVEQEEGESKAFQPWEDIQENFLYYEEKLADILK
notes: also called A2; not shown: N-terminal Flag tag (annealed oligonucleotides AO1 and AO2)

binding result (Myc-human Hsp90beta [2]): no binding
B3: Flag-tagged rat APOBEC1 (enzyme, UniProt P38483 1-229, looked up)
chain: MSSETGPVAVDPTLRRRIEPHEFEVFFDPRELRKETCLLYEINWGGRHSIWRHTSQNTNKHVEVNFIEKFTTERYFCPNTRCSITWFLSWSPCGECSRAITEFLSRYPHVTLFIYIARLYHHADPRNRQGLRDLISSGVTIQIMTEQESGYCWRNFVNYSPSNEAHWPRYPHLWVRLYVLELYCIILGLPPCLNILRRKQPQLTFFTIALQSCHYQRLPPHILWATGLK
notes: also called A1; not shown: N-terminal Flag tag (annealed oligonucleotides AO1 and AO2)
